# Laboratory results published in PMC4167695, “Activation of c-Myc and Cyclin D1 by JCV T-Antigen and β-Catenin in Colon Cancer” (PLoS ONE, 2014).
# T1: β-catenin (human (endogenous in HCT116), UniProt P35222 1-781)
# T1 sequence (looked up): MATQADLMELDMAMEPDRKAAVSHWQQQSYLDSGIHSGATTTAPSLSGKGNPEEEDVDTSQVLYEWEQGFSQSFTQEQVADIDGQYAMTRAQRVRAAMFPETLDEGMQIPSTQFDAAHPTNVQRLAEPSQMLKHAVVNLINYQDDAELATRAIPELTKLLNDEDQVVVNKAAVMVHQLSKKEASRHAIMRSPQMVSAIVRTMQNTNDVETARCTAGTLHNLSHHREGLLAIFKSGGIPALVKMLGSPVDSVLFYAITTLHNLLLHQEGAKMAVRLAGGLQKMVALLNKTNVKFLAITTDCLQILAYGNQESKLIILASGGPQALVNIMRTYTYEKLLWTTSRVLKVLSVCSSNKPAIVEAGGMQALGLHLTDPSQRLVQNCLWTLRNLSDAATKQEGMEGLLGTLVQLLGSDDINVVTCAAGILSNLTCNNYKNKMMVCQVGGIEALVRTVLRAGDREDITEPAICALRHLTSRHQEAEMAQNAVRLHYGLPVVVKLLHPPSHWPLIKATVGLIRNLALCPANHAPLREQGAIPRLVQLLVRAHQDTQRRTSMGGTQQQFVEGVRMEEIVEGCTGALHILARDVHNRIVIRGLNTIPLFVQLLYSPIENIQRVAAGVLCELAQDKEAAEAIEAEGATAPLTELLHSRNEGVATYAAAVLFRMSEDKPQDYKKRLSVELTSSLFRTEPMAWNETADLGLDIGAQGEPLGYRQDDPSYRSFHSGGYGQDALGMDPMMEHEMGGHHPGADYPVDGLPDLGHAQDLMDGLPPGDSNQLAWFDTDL
# B1: JCV T-Antigen (natural protein)
# chain: MDKVLNREESMELMDLLGLDRSAWGNIPVMRKAYLKKCKELHPDKGGDEDKMKRMNFLYKKMEQGVKVAHQPDFGTWNSSEVPTYGTDEWESWWNTFNEKWDEDLFCHEEMFASDDENTGSQHSTPPKKKKKVEDPKDFPVDLHAFLSQAVFSNRTVASFAVYTTKEKAQILYKKLMEKYSVTFISRHGFGGHNILFFLTPHRHRVSAINNYCQKLCTFSFLICKGVNKEYLFYSALCRQPYAVVEESIQGGLKEHDFNPEEPEETKQVSWKLVTQYALETKCEDVFLLMGMYLDFQENPQQCKKCEKKDQPNHFNHHEKHYYNAQIFADSKNQKSICQQAVDTVAAKQRVDSIHMTREEMLVERFNFLLDKMDLIFGAHGNAVLEQYMAGVAWIHCLLPQMDTVIYDFLKCIVLNIPKKRYWLFKGPIDSGKTTLAAALLDLCGGKSLNVNMPLERLNFELGVGIDQFMVVFEDVKGTGAESRDLPSGHGISNLDCLRDYLDGSVKVNLERKHQNKRTQVFPPGIVTMNEYSVPRTLQARFVRQIDFRPKAYLRKSLSCSEYLLEKRILQSGMTLLLLLIWFRPVADFAAAIHERIVQWKERLDLEISMYTFSTMKANVGMGRPILDFPREEDSEAEDSGHGSSTESQSQCFSQVSEASGADTQENCTFHICKGFQCFKKPKTPPPK
# Target: T1, β-catenin
# Experiment: cell-based or functional assay
binder,measurement,value
B1,"Cyclin D1 promoter luciferase activity in HCT116 cells co-transfected with T-Antigen and β-catenin, over empty vector controls",11.7 fold
same,"TOPflash (TCF-dependent luciferase reporter) activity in HCT116 cells co-transfected with T-Antigen and exogenous β-catenin, 24 hours post-transfection, normalized to FOPflash",113 fold
same,"c-Myc promoter luciferase activity in HCT116 cells co-transfected with T-Antigen and β-catenin, over empty vector controls",6.1 fold
